Series [1] addresses T1, PleC PAS AB-HK (Caulobacter crescentus).
T1 sequence (P37894 whole entry, looked up): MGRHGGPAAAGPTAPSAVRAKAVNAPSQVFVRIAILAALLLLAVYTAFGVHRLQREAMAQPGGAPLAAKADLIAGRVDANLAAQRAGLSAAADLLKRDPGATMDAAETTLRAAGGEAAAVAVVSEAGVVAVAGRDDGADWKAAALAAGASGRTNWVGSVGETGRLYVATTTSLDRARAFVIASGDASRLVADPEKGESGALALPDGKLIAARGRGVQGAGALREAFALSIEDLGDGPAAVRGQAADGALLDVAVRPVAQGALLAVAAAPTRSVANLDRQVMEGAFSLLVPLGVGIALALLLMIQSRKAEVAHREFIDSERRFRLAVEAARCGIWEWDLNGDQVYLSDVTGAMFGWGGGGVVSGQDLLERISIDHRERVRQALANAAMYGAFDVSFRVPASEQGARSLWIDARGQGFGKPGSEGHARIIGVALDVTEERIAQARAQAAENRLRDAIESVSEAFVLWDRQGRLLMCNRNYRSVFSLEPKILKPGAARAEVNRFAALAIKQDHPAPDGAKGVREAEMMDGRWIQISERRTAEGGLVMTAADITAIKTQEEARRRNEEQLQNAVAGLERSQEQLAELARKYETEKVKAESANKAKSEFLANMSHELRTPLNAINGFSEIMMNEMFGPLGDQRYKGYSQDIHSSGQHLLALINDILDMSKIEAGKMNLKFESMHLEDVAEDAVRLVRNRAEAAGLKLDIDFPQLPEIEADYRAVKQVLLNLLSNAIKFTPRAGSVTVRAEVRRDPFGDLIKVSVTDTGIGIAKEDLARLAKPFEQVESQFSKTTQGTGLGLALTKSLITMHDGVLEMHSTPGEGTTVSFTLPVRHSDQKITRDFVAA
In words: cell-based or functional assay.

Series [2] deals with the molecule itself. In words: SEC; 3.2 mg/ml His-PodJ(1–635), Superdex 200 10/300 GL, 50 mM Tris-HCl pH 8.0, 300 mM KCl. (Size exclusion chromatography separates by hydrodynamic size, large species first.)

B1: His-PodJ(1–635) (domain or fragment, Caulobacter crescentus, UniProt Q9ZG88 1-635, looked up)
chain: MTAASPWSVKGIDPKAREVAKDLARRSGMTLGEWLNRMIIEGDGQTADPRLAGDDVPNRAYLEIVKDDAPPRIEIAEHPADEVGRVALALDRLTQRIEAAEGRNAAAITGIDHSVRDALTRLGASEREQIAVAARFEGAVDELKTEQARATERLRRIESEAAGPRSAEALRALEGALGKVAGHLYEGEARTREAIATLEAKLNQQSSGDPSALVEAVVARLGERLEAAETRTSDALRELGASFQALDQRLGAVETANPATGVQEGLDSLAATLTQKMEAARLEMAAKLRESADGRFDRMERKLGEMAAHVQAAEQRSAQAIERMGREIVGVADAFNRRVHAAESRNASAIEQVGGEVARIAASVEHKLNRADSVQAQALEKLGGEIARITEKLAERIGSAERRNALAIDDVGEQVARVTERLNQRHERSSQELVDRIRQSEERTLRMLEEAREKIDSRLSEAQRKLEAAPPSPPPAQAPAPVATAQRPVPPAASPFEDNYFSQAASFSTSEDEADAFDAPPAPARSFEVAEFPAAEPEEPAFAHDDYAIADGFEPESPRYEVEPEVSDFAPAEPSRPMSTRDIIEQARAAARAAAASEGKGGKAKSAKKEKASKASGSLFSGFGGFSTKKSKARL
notes: PodJ, Caulobacter crescentus, cytoplasmic domains without the transmembrane tether, residues 1–635; also called cytoplasmic portion of PodJ; source: E. coli Rosetta (DE3), plasmid pwz091, purified (HisTrap HP)
Turning to B1, the “IC50 of the repression of the ADP production rate of 7.5 μM PleC PAS AB-HK with 1000 μM ATP (coupled enzyme assay), PodJ(1–635) 0-7.5 μM” value in series [1] is 1860 nM. In addition, in series [2], the binding result is reported as “binds”.

The record behind these values is article PMC8980812, “Regulation of the activity of the bacterial histidine kinase PleC by the scaffolding protein PodJ” (The Journal of Biological Chemistry, 2022).
